Measurements from the supplement of paper PMC7877785.
± gives the uncertainty stated by the source.

Assay: self-splicing fitness, log relative to wild type (ln ratio); higher = more splicing; Tetrahymena group I intron in knt gene, E. coli kanamycin selection, DiMSum; sequences stand for … in CUCUCU…GGAGGGAAAAGUUAUCAGGCAUGCACCUGGUAGCUAGUCUUUAAACCAAUAGAUUGCAUCGGUUUAAAAGGCAAGACCGUCAAAUUGCGGGAAAGGGGUCAACAGCCGUUCAGUACCAAGUCUCAGGGGAAACUUUGAGAUGGCCUUGCAAAGGGUAUGGUAAUAAGCUGACGGACAUGGUCCUAACCACGCAGCCAAGUCCUAAGUCAACAGAUCUUCUGUUGAUAUGGAUGCAGUUCACAGACUAAAUGUCGGUCGGGGAAGAUGUAUUCUUCUCAUAAGAUAUAGUCGGACCUCUCCUUAAUGGGAGCUAGCGGAUGAAGUGAUGCAACACUGGAGCCGCUGGGAACUAAUUUGUAUGCGAAAGUAUAUUGAUUAGUUUUGGAGUACUCGUGGUCG
How it was run: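 Colonies from six replicate transformations of E. coli BL21(DE3) were pooled and amplicon-sequenced on an Illumina HiSeq 2500. The library placed an intron with all eight P1ex-region nucleotides randomised inside the knt kanamycin-resistance gene on pET-22b(+), and cells grew overnight at 37°C or 30°C on LB agar with or without 25 μg/mL kanamycin (plus 100 μg/mL carbenicillin, 50 μM IPTG, 0.2% rhamnose). Fitness is the DiMSum error-weighted combination of wild-type-normalised replicate fold changes, kanamycin versus none.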

Sequence | self-splicing fitness (ln) (30 °C) | self-splicing fitness (ln) (37 °C)
CCCUAGCAAUAUUACGUCCA | -2.95 ± 0.23 | -2.83 ± 0.31
CCCUAGCAAUAUUACGUGGG | -3.48 ± 0.1 | -2.54 ± 0.14
CCCUAGCAAUAUUACGUUCA | -3.05 ± 0.19 | -2.7 ± 0.2
CCCUAGCAAUAUUACGUUCG | -3.63 ± 0.27 | -2.64 ± 0.33
CCGAAGCAAUAUUACGAAAG | -1.21 ± 0.073 | -0.965 ± 0.092
CCGAAGCAAUAUUACGAGAA | -2.48 ± 0.47 | -1.17 ± 0.49
CCGAAGCAAUAUUACGAGCC | -3.7 ± 0.26 | -2.8 ± 0.23
CCGAAGCAAUAUUACGAGGC | -4.67 ± 0.42 | -3.39 ± 0.29
CCGAAGCAAUAUUACGAUCU | -3.36 ± 0.34 | -2.85 ± 0.29
CCGAAGCAAUAUUACGCAUU | -3.01 ± 0.2 | -3.77 ± 0.29
CCGAAGCAAUAUUACGCUGG | -2.83 ± 0.22 | -3.49 ± 0.35
CCGAAGCAAUAUUACGGAAG | -3.86 ± 0.24 | -1.31 ± 0.15
CCGAAGCAAUAUUACGGGAG | -2.67 ± 0.18 | -2.46 ± 0.23
CCGAAGCAAUAUUACGGGCA |  | -2.82 ± 0.25
CCGAAGCAAUAUUACGGGUU | -4.22 ± 0.21 | -2.64 ± 0.16
CCGAAGCAAUAUUACGUACG | -1.37 ± 0.13 | -0.92 ± 0.13
CCGAAGCAAUAUUACGUAGA | -3.45 ± 0.17 | -1.06 ± 0.17
CCGAAGCAAUAUUACGUCAA | -3.82 ± 0.38 | -2.35 ± 0.33
CCGAAGCAAUAUUACGUCUG | -0.669 ± 0.06 | -0.285 ± 0.068
CCGAAGCAAUAUUACGUGAU | -3.4 ± 0.13 | -2.84 ± 0.19
CCGAAGCAAUAUUACGUGGG | -3.82 ± 0.14 | -2.39 ± 0.14
CCGAAGCAAUAUUACGUUUA | -3.96 ± 0.26 | -2.95 ± 0.19
CCGAAGCAAUAUUACGUUUG | -4.44 ± 0.22 | -0.979 ± 0.1
CCGCAGCAAUAUUACGAAGC | -3.14 ± 0.22 | -3.36 ± 0.25
CCGCAGCAAUAUUACGAUAG | -0.786 ± 0.052 | 0.602 ± 0.07
CCGCAGCAAUAUUACGCCCC | -3.29 ± 0.36 | -1.4 ± 0.45

Sequence | self-splicing fitness (ln) (30 °C) | self-splicing fitness (ln) (37 °C)
CCGCAGCAAUAUUACGCCUC | -2.79 ± 0.12 | -2.04 ± 0.14
CCGCAGCAAUAUUACGCGCU | -3.09 ± 0.21 | -2.01 ± 0.23
CCGCAGCAAUAUUACGCUAC | -4.14 ± 0.28 | -2.37 ± 0.23
CCGCAGCAAUAUUACGCUUG | -3 ± 0.12 | -2.84 ± 0.16
CCGCAGCAAUAUUACGGACA | -4.06 ± 0.46 | -2.57 ± 0.17
CCGCAGCAAUAUUACGGAGG | -3.01 ± 0.16 | -1.81 ± 0.18
CCGCAGCAAUAUUACGGGUU | -3.79 ± 0.11 | -2.74 ± 0.11
CCGCAGCAAUAUUACGGUCC | -3.73 ± 0.23 | -1.99 ± 0.23
CCGCAGCAAUAUUACGGUCU | -4.37 ± 0.2 | -3.65 ± 0.23
CCGCAGCAAUAUUACGUGGA | -3.51 ± 0.23 | -2.43 ± 0.22
CCGCAGCAAUAUUACGUUCU | -3.87 ± 0.19 | -3.16 ± 0.26
CCGCAGCAAUAUUACGUUGA | -3.59 ± 0.16 | -3.41 ± 0.25
CCGGAGCAAUAUUACGAAGA | -3.63 ± 0.23 | -1.97 ± 0.16
CCGGAGCAAUAUUACGAGGG | -2.13 ± 0.27 | -1.47 ± 0.29
CCGGAGCAAUAUUACGAGUC | -3.15 ± 0.26 | -1.85 ± 0.28
CCGGAGCAAUAUUACGAUGU | -1.72 ± 0.14 | -0.726 ± 0.17
CCGGAGCAAUAUUACGAUUU | -2.51 ± 0.36 | -2.26 ± 0.3
CCGGAGCAAUAUUACGCAUU | -2.9 ± 0.39 | -1.81 ± 0.45
CCGGAGCAAUAUUACGCGCG | -2.44 ± 0.2 | -0.558 ± 0.22
CCGGAGCAAUAUUACGCUAG | -3.07 ± 0.21 | -2.33 ± 0.26
CCGGAGCAAUAUUACGCUAU |  | -2.1 ± 0.2
CCGGAGCAAUAUUACGCUGG | -1.99 ± 0.21 | 
CCGGAGCAAUAUUACGGAGC | -3.73 ± 0.48 | -2.55 ± 0.44
CCGGAGCAAUAUUACGGGCA | -3.1 ± 0.48 | -2.4 ± 0.41
CCGGAGCAAUAUUACGUAAG | -0.00724 ± 0.087 | 0.176 ± 0.13
CCGGAGCAAUAUUACGUACA | -3.36 ± 0.4 | 

Sequence | self-splicing fitness (ln) (30 °C) | self-splicing fitness (ln) (37 °C)
CCGGAGCAAUAUUACGUAGC | -2.74 ± 0.31 | -2.04 ± 0.46
CCGGAGCAAUAUUACGUAGG | -3.55 ± 0.26 | -2.66 ± 0.3
CCGGAGCAAUAUUACGUAGU | -4.17 ± 0.25 | -3.22 ± 0.22
CCGGAGCAAUAUUACGUCCG | -3.03 ± 0.37 | 
CCGGAGCAAUAUUACGUCGU | -3.43 ± 0.22 | -1.51 ± 0.18
CCGGAGCAAUAUUACGUGGG | -3.39 ± 0.31 | -2.78 ± 0.38
CCGGAGCAAUAUUACGUGUU | -3.46 ± 0.24 | -2.01 ± 0.19
CCGGAGCAAUAUUACGUUAC | -3.75 ± 0.2 | -1.67 ± 0.2
CCGGAGCAAUAUUACGUUGG | -3.57 ± 0.24 | -2.47 ± 0.26
CCGGAGCAAUAUUACGUUUC | -2.4 ± 0.31 | -2.74 ± 0.48
CCGUAGCAAUAUUACGACGA | -0.268 ± 0.11 | -0.689 ± 0.1
CCGUAGCAAUAUUACGAGAU | -3.86 ± 0.32 | -2.29 ± 0.3
CCGUAGCAAUAUUACGCACC |  | -2.21 ± 0.37
CCGUAGCAAUAUUACGCCAA | -3.21 ± 0.41 | -2.77 ± 0.4
CCGUAGCAAUAUUACGCCAU | -3.26 ± 0.25 | -2.77 ± 0.36
CCGUAGCAAUAUUACGCGAG | -3.82 ± 0.24 | -2.76 ± 0.32
CCGUAGCAAUAUUACGCUAG | -3.02 ± 0.28 | -2.14 ± 0.25
CCGUAGCAAUAUUACGCUUG | -1.48 ± 0.069 | -0.347 ± 0.075
CCGUAGCAAUAUUACGGCCG | -1.05 ± 0.16 | -0.466 ± 0.18
CCGUAGCAAUAUUACGGGGC | -2.28 ± 0.24 | -2.31 ± 0.34
CCGUAGCAAUAUUACGGGUC | -2.96 ± 0.21 | -2.55 ± 0.2
CCGUAGCAAUAUUACGGGUG | -3.59 ± 0.21 | -2.11 ± 0.16
CCGUAGCAAUAUUACGGUGC | -2.96 ± 0.16 | -1.93 ± 0.16
CCGUAGCAAUAUUACGUAAU | -4.17 ± 0.26 | -1.96 ± 0.26
CCGUAGCAAUAUUACGUAUU | -4.16 ± 0.28 | -3.58 ± 0.39
